In a protein production outcome set (Wang et al. 2014):

Test: label from the status in PepcDB records

With “MAIGIAANRLELLQIADAVAREKGIEKEVVIEAIEDALQKAARARYGAEHDIRVKIDPKTGETTQKRVIEVVSDDAELEGEIGKMPFSIAKRTWRDAEIGKVYEEVLPPFEIGRVQTQMARQVVMHKVREAERERQYDEYKDRVGEIVNGSVKRVEYGNVIVDLGRGEGIMRRDQSIPRENFNVGDRIRAYIYDVRRETKGPQIMLSRAHGGFMAKLFAQEVPEVYDGVIEIRAVARDPGSRAKMAVISNDGSIDPVGACVGMRGSRVQAVVAELQGEKIDIIQWSEDEATFIVNALAPAEVSKVVMDEEDERVEVVVPDEQLSLAIGRRGQNVRLASQLTGWQIDIMTESQESERRQREFAERTALFQEALDVDEVIAQLLVTEGFAAVEDVAYVEPHEIASIEGFDEETAEELQTRAREFLEKEAAELDAKRKALGVEDELLTIEGVTLAMAVALGEGDVKSIEDLAGLVPDDMRGWFENKGGERVREPGILESFNLSPEDAEALIMRARIAMGWVEAPPEPEPEPEFEEESSAEGDVVAEAEEEA” as the sequence, how does the protein production read?
The protein production was “failed”.

With “MAIPGNMWIYDDGGALIKGGCDVADREFSIEFKGFHHNLSIPTDHATGKPTGTRQHSPMIIVKEFDYSSPYLYKAVATGQNLKSAEIKWYKISDAGQEVEYFNMLLEGVRIVSISPTMASPEDKNNNHLESVELRYEKITWKHCDGNIIFTDAWNERQTA” as the sequence, how does the protein production read?
Its protein production is “not failed”.

For “MAIPSGATGKEPFLPRTLTVLREGYDGGTFFKDLAAGLTVGIVALPLAMAFAIASGTTPERGLFTAIVAGFLISLLGGSRYQIGGPTGAFVIIIFNVIMKHGYDGLVVTTLLAGAMLLVFGLCRFGALIKYIPYPVTTGFTAGIAVLIFSQQVKDFLGLSMQSVPPDFFEKWQAYIHNAATFDPATCGIAFLALGAIILTRKTIPRIPGPVVGVVLASLTVWALGLDVETIGSRFGGIPTELPTFTLPTVTLERVRQLLPDAMTIALLAGIESLLSCVVADGMTGDKHNSNVELAAQGAANIASVMFGGIPATGAIARTVTNIRSGGRTPVAGMIHAAVLVGFILYLAPLASFIPLASLAAVLMVVAWDMSEMHKFLRLLHAPKSDVLVMCLTFALTVVIDLTVAVYVGVMLASLLFMRRMSEVTQICTCLDGEATKVQGRETAELDVPEGVKVYEIDGPFFFGVADRFQNVLAALDRQPEVFILRMRKVSTLDSTAVNALEVFWRKCRSDGTQLLLSGVRETMRTTLRRMGTLSLIGEGNICENIDAALARAGQVLAERREAEDRPQ”, which protein production is on record?
Its protein production is “failed”.

Which protein production does the source give for “MAISVIMSVYNERPEQVQQAVDSILKQTYLPREFVIVLDNPERSDLKDLLMDYDCRVEMIKLVCNPENLGLAASLNKAIELASSELIARMDADDISVTNRLEVELEALKTRDLDLISGNITYLDEQDEVVGEKSAIPEAEPLIQKILPYGSTIIHPTVLMRKTAVQQVGGYRLLPTAEDYDLWLRLLANGFKIGSINRRVLNYRLRGNSMTSDAWKTYLVSRYIQQLYAERKRTGADSFGRGMSALTDKINDVRAQSTFNRGQKYFTMAMASMRKRKLGQALAALVRAMVTSPDNCYYVINYLRLRTIWSVNGRRYRQQPSD” here?
The protein production was “failed”.

Which protein production does the source give for “MAIVLLVLHVCTGLRGSPVSGRVRMAVDSGIYLAPCSNNDAQEHLKRTVINGVDRDDYGQYTNVGFGDSVSIWGVKGGNESHWQDIDAGDYLFFYTGDETYSQVAEVLATDQNEGLAEHLWPGFEDTWEFIIYLNEPIPVNIDSNEIADYAGYKQNYILGFQSLRGSAVDEINDEYGSIEGYINANRTDGNHIQTSGGSQDPDEGDDSVVDEVLDEADRDEEAYANIARQLEEVGQVVFYGPPGTGKTYNAQQFARWWLHNLQSEPRESQVRSVTFHPSYTYEDFIEGLTANATENSVSYDIKPGKFKAICEDARVAYQETGPNEEPPRYVLLIDEINRGNLAQIFGETITLLEEDKRGTLHVDLAHSGGSFTIPPNLYVIGTMNTADRSVALVDAALRRRFRFIDFPPDYGVARSRFGFDTEYDLTSAARGERSDLEQLQALSIQAVEQLNETIIELPDLGKGKQIGHSYLLVDPDDEQALVDAWRYEILPLLEEYFYGQLSRIRQELFNQNGDSLVDWEREQIKDFDPETLRESLQAIVNAGLEHHHHHH” here?
Its protein production is “failed”.

With “MAKDKRISLLKVTSMVIIINLLSKITGFIRDFITASKFGTSVSADAFSMSSVVPNIIFAILGAAIVNTFVPIFNDVIVNKGEKRAFKFSNNVITVLTLLSIILTLLGEIFCPQFVKLIAPDFHGYKYLLTIKLTRIFLLIIIVNTWVFLSTAILQAKEHFLIPSLIGIPYNLLVIVYLLFFSSKYGVLGLTEVIVFAMFVQFLIHVPSLARMKYRYKPEFNISDGYLKSMVVLLIPILLGTSVQQITSLFNGRFSSSLETGSVAALSYASRLNSLVMDIFVISIVTVIYPKMTKLSSENKIGELIESFNISIRSITIILFPIITIILIESVPIVKILFQRDAFGNKSTLMTSTALFYYIIGIIAAGLREVLCRMFYALKDTRTPMINSAITVLVNVVLAYYLKDVLRLGGIALASSIAAYVSSILLFIKLNSKLKNINYRKTIGVTIKVIFASIGMGIFLKVLYQIVGQALLKKAIIIEIIGFGGITLIALLIYMLILYLMKVEEINMVSAFLYKKIKRG” as the sequence, how does the protein production read?
The protein production was “failed”.

With “MAKDKTSRKAPMGSGRDALMQAFREAQRPLRLDMLLRILGLHRKEKRTLEESLEALQAEGRILRLRGGAWGLTDHMKMVTGTLQVQRTGMGFVLPEDRRRTDIYVHPTQMGEAWHGDKVVVVLLPGGRGRNPEGRIVRILERGLKEMPARVVKRMGRQGLLCRAADARIKVHFLVDVTGLEGKPQKDDILVVSPGERVEDGLWAATAVRHLGSEDDVSVQERLVKINHGVPTEFPVPVLEEAATLPPAPGGGDFADRIDLRHMEFVTIDGARARDFDDAICVEEQGKGWRLWVAIADVSHYVRPGSAMDREALERSNSYYFPQSVEPMLPEALSNGLCSLNPRVPRLAMVAEIYFFGEGSPGKCKFYPAVIESKARLTYGQVNRALLLGDEEERLVLRPVLPMLEQAEKLARVLHQRRRERGSLDFDLPEPEIAFNIYGETVDIRRKVRHFGHQIVEEFMIAANEAVARFLTEKEADFLYRVHPEPEPEKLSALFKVLAGTDIAQGLPREASAGALQTVLQKAHGSAQEFLISRLTLRTMMQARYSPEHEGHFGLASACYCHFTSPIRRYADLVVHRALKRALGGDPGPTPAGGKLVAIADQLSQHERKAMEAEREILKRLTVLLLRSRVGETLTGVISSILDFGFFVELNEVLADGMVRLSSLDDDYYAFIPERQELRGERTGRTFRLGQQVKVRLADVNVGRLEVNLELVREEGDDTPVPTRRRSAASGRDGSGRDGSGRGGRGRSRHDATPRVKASPDASPEVSADGDMPDGDRLPPWIRAATEEDDPRDTTRTRRRRDDDASSRDGGDRRRGRSRNEGARGAGNPARGKAPRDGAGGDRKKGDGRDGKDGQAGGKPAGKGQSRKGKASSHRKGQGRVKKSDE” as the sequence, how does the protein production read?
The protein production was “failed”.

For “MAKGNKIPLTFHTYQDAATGTEVVRLTPPDVICHRNYFYQKCFFNDGSKLLFGAAFDGPWNYYLLDLKEQNATQLTEGKGDNTFGGFLSPNDDALYYVKNTRNLMRVDLTTLEEKTIYQVPDDWVGYGTWVANSDCTKMVGIEIKKEDWKPLTDWKKFQEFYFTNPCCRLIRVDLVTGEAETILQENQWLGHPIYRPGDDNTVAFCHEGPHDLVDARMWFINEDGTNMRKVKEHAEGESCTHEFWVPDGSAMIYVSYLKDDTNRYIRSIDPVTLEDRQLRVMPPCSHLMSNYDGTLLVGDGSDAPVDVQDDGGYKIENDPFLYVFNLKTGKEHRIAQHNTSWEVLEGDRQVTHPHPSFTPDNKQVLFTSDVDGKPALYLAKVPDSVWNLEHHHHHH”, which protein production is on record?
The protein production was “not failed”.

With “MAKGTAVEFQPGGGQARDVFSIAAQAASPAADAGTSAAPAQAAPAPAAVASQAQHFGRTAEPAEPTDLWSYFWNGVTRNYFNFAGRARRKEYWGYCLFWTIALLVIVGIGVFADAEMGNFDSAEMPAMTVGLFGLFLLATFLPSLGMIVRRLHDLGLTGWLCLLILIPTFGSLIILVFALIPTQGRENQWGPVPAGVRV” as the sequence, how does the protein production read?
Its protein production is “failed”.

With “MAKIDALAPQYSRIILLGHSAGGMIVRDAYLLAAGAYLDQPSRGAWWSKVESVLLFASINRGFRPYATATWALGMALMKLVSLQWLLLKPPSWFTLGWLMELEKGSFFVTDLRLSWMRHFHERDDEHRPFVVQFLGDIDGVVAREDVRDTEAFANSYTVTIEGADHSNLFDPAAPPGAAGFMRIMEVFRNPDPQLHEPEQAGELPATGPGRVVFVLHGIRDGNSGWVTDIAEAIEQQAKSDGQGKPLAAACSGHESPVLVDRSTYGWFSAIKFALPWVRRGNLAWFLDRYSYHVARNPDVQFHFVGHSNGTYILGTSLLEVSSLKFDRVYLAGSVLPREFPWQRMMLRRQVATVANQCSSEDWPVGGLCRGLHLIGFRDVGTGGVDGFDELRDLPTQPQTLWFKGDHGKPLQRPNQPNIVNYVLASHIATPLLSAPTGADLCERPSFWFRARMYGFALLTALGVGAAFYGAWWGFTHDHEGLVIAGILLLYFVLNTI” as the sequence, how does the protein production read?
The protein production was “failed”.

Which protein production does the source give for “MAKKDNFEEYAQLEEYASAEDISRVRAELLTCPELNTSLAGTIIEIDKNYAKSILITTSEMVADDQGLIFDAFIFAAANYVAQASINKEFSVIIGSKCFFYAPLKLGDVLELEAHALFDETSKKRDVKVVGHVKEVKMFEGTIQVVSTDEHIFKLKRPPLNTVKPTENQEQGAKINNPEAVAAALMASVGGK” here?
Its protein production is “failed”.

With “MAKKILILGAAGEIARMLTDRLLAESDAELVLYGRNVSQRLALEENSRIKLVDGTFGESEKLEAALAGVDVVYLNSMSSPADTASVVQALEKAGVKRLLGATIAGVEDEVPYELATWTKNSLPASYIKGEYDSAKIVRDSNLDYTLLRLTWLFNDESDREYELVPSGVEFADAEVSRQAITQAILDILNGEESEYVRKSFGLGKPNTHYGKPSFY” as the sequence, how does the protein production read?
The protein production was “failed”.

Which protein production does the source give for “MAKKPAAHATKPKPWTEMATHLVDVAMGRKPADLVIRNGRWVNVHSGEIIAGTDIAIAGGRFAYCGPNASHAIGQGTKVVDAGGRYLVPGLCDAHMHVESGMVTVTEFCRAVIPHGTTSMFIDPHEIANVLGLPGVRLMHDEAVAMPINVHVQMPSCVPSAPGLEHAGAELTVADVAEAMTWENIIGLGEVMNFPGVAANDPVMSGEIAATVRAGKTVGGHYASRDLGLPFHGYVAGGPEDDHEGTRAEDAIARVRQGMKAMLRLGSAWYDVASQIKAVTEGGIDPRNFILCTDDSHSGTLVHEGHMDRVVRHAIQQGLKPVTAIQMATINTAQHFRLEREIGSIAPGRLADLLIVSDLAAMTIDEVYARGVRLAKGGKLDIDIPAYDYPKTAKNTVKLGKKLRAGDFDITAPKGANEVRVRVIGVIENQAPTRALEADLPVEDGLVAMDRRNDVCQIALVERHRGTGGVTNAFVSGFGYMGDCAMASSVAHDAHHIICVGTNKQDMALAVNRLGQVGGGVVLFSKGKELALVEMPIAGLMSDERAEIVAAKAEKLTEAMRKMGCSLNNAYMQHSLLALVVIPELRISDVGLIDVTTFQKVDLFV” here?
Its protein production is “failed”.

With “MAKKTSSLLSRRRTRRPGEPPLDLGSIPWLGYALDFGKDAASFLTRMKEKHGDIFTILVGGRYVTVLLDPHSYDAVVWEPRTRLDFHAYAIFLMERIFDVQLPHYSPSDEKARMKLTLLHRELQALTEAMYTNLHAVLLGDATEAGSGWHEMGLLDFSYSFLLRAGYLTLYGIEALPRTHESQAQDRVHSADVFHTFRQLDRLLPKLARGSLSVGDKDHMCSVKSRLWKLLSPARLARRAHRSKWLESYLLHLEEMGVSEEMQARALVLQLWATQGNMGPAAFWLLLFLLKNPEALAAVRGELESILWQAEQPVSQTTTLPQKVLDSTPVLDSVLSESLRLTAAPFITREVVVDLAMPMADGREFNLRRGDRLLLFPFLSPQRDPEIYTDPEVFKYNRFLNPDGSEKKDFYKDGKRLKNYNMPWGAGHNHCLGRSYAVNSIKQFVFLVLVHLDLELINADVEIPEFDLSRYGFGLMQPEHDVPVRYRIRPHHHH” as the sequence, how does the protein production read?
The protein production was “not failed”.

With “MAKKVAVLAVNPVNGCGLFQYLEAFFENGISYKVFAVSDTKEIKTNSGMVLIVDDVIANLKGHEDEFDALVFSCGDAVPVFQQYANQPYNVDLMEVIKTFGEKGKMMIGHCAGAMMFDFTGITKGKKVAVHPLAKPAIQNGIATDEKSEIDGNFFTAQDENTIWTMLPKVIEALKLEHHHHHH” as the sequence, how does the protein production read?
The protein production was “not failed”.
